{"source": "paper doi:10.1101/2024.02.22.581614", "about": "(bioRxiv, 2024)", "target": "T1, Extant nitrogenase molybdenum-iron protein alpha chain, NifD (A. vinelandii) (Azotobacter vinelandii, UniProt P07328 1-492)", "T1 sequence (looked up)": "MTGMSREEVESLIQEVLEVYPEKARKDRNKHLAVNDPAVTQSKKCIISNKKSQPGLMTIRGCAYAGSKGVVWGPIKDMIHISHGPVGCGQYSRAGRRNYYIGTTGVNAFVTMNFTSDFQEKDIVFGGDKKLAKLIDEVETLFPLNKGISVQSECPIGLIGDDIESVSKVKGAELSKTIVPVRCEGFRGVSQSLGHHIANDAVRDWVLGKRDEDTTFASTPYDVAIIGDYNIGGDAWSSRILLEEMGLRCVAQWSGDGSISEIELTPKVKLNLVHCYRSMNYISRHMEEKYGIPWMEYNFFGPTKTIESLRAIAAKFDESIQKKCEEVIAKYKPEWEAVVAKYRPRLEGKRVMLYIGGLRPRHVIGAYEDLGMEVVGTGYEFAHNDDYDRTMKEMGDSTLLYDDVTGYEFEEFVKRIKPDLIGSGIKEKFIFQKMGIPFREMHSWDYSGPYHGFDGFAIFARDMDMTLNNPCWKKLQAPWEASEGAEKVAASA", "assay": "affinity co-purification", "data": [{"binder": "Extant nitrogenase molybdenum-iron protein beta chain, NifK (A. vinelandii) (enzyme, Azotobacter vinelandii, UniProt P07329 1-523, looked up) MSQQVDKIKASYPLFLDQDYKDMLAKKRDGFEEKYPQDKIDEVFQWTTTKEYQELNFQREALTVNPAKACQPLGAVLCALGFEKTMPYVHGSQGCVAYFRSYFNRHFREPVSCVSDSMTEDAAVFGGQQNMKDGLQNCKATYKPDMIAVSTTCMAEVIGDDLNAFINNSKKEGFIPDEFPVPFAHTPSFVGSHVTGWDNMFEGIARYFTLKSMDDKVVGSNKKINIVPGFETYLGNFRVIKRMLSEMGVGYSLLSDPEEVLDTPADGQFRMYAGGTTQEEMKDAPNALNTVLLQPWHLEKTKKFVEGTWKHEVPKLNIPMGLDWTDEFLMKVSEISGQPIPASLTKERGRLVDMMTDSHTWLHGKRFALWGDPDFVMGLVKFLLELGCEPVHILCHNGNKRWKKAVDAILAASPYGKNATVYIGKDLWHLRSLVFTDKPDFMIGNSYGKFIQRDTLHKGKEFEVPLIRIGFPIFDRHHLHRSTTLGYEGAMQILTTLVNSILERLDEETRGMQATDYNHDLVR", "values": [{"measurement": "stoichiometry N", "result": "0.93 D:K"}]}]}
